Data taken from paper PMC3004780 (Journal of nuclear medicine : official publication, Society …, 2009).

Experiments:
[1] = mouse, in vivo
[2] = tested on: Klebsiella pneumoniae lung inflammation model; assay type: in vivo, mouse; conditions: excised tissue, 18 hr post injection, control n=4, Klebsiella-infected n=6 mice
[3] = tested on: Klebsiella pneumoniae lung inflammation model; assay type: in vivo, mouse
neutrophil FPR = conditions: read-out: Kd for neutrophil FPR; unaltered parent peptide, antagonist; cited from earlier work

Substance | Blood half-life [1] | Blood clearance (biological) half-life ([1]; iv) | Mean ratio of radioactivity in infected to control lungs [2] | Average lung SUV, control mice ([3]; PET 18 hr post injection, n=4, mean ± SD) | Average lung SUV, Klebsiella infected mice ([3]; PET 18 hr post injection, n=6, mean ± SD) | Ligand half-life in the control lung ([3]; mouse, in vivo) | Ligand half-life in the infected lung ([3]; mouse, in vivo) | Kd (neutrophil FPR)
cFLFLF-PEG76-DOTA-^64Cu [cFLFLFK-PEG-^64Cu] | approximately 1 hour | 55 ± 8 min | 3.8 | 0.028 ± 0.003 | 0.142 ± 0.054 | 4.8 ± 0.7 h | 10.3 ± 2.9 h | 
N-cinnamoyl-F-(D)L-F-(D)L-F [cFLFLF] |  |  |  |  |  |  |  | 2 nM
